As usually defined, the Kd is a measure of binding affinity in units of concentration. One may read the EC50 as the concentration that produces a half-maximal response. Read a low EC50 as greater potency. Broadly, the EC50 (read off the curve) is the midpoint of the concentration-response curve.

Assay [1] addresses T1, N-terminal his-tagged mouse MARCO protein, recombinant (mouse, UniProt Q60754 150-518).
T1 construct: The entry holds the His tag, the CLD and the SRCR domain; also called mMARCO (RG3016); PI-RG-3016
T1 sequence: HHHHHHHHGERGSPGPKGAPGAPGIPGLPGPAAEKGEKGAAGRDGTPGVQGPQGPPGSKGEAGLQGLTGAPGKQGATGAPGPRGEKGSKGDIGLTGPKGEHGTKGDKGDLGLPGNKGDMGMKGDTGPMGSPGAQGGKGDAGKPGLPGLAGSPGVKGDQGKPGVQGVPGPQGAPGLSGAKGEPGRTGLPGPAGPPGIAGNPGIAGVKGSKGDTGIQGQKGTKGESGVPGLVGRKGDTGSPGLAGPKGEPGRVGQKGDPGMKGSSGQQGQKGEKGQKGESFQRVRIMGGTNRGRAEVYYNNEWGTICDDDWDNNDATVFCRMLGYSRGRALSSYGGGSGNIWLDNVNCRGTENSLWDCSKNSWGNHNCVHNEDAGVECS
Nature of the assay: Biacore. For orientation: Surface plasmon resonance follows binding to a sensor surface in real time, without labels.

Assay [2] addresses T2, Mouse MARCO, full length, on cells (mouse, UniProt Q60754 1-518).
T2 construct: whole, on cells; the cell type is named under assay; also called muMARCO; MuMARCO
T2 sequence (looked up): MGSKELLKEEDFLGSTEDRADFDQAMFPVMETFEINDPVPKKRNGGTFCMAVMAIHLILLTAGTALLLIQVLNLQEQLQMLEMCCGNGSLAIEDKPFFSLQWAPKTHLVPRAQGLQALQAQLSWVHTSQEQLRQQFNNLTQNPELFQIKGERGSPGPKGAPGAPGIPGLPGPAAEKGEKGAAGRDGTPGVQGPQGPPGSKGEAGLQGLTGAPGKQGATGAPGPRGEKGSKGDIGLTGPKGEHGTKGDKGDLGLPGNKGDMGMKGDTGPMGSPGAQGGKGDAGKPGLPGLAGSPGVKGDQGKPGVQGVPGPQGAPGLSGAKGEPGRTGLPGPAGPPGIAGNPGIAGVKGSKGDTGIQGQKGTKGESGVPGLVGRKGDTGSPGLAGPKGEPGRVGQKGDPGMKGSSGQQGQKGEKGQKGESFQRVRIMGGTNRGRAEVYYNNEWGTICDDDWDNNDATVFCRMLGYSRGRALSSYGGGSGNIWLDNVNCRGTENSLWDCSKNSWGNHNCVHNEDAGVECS
Nature of the assay: flow cytometry, 293T (muMARCO).

The target of a further assay is T3, hVar3 (RG3036) (human, UniProt Q9UEW3 147-520).
T3 construct: Human MARCO His-CLD-SRCR with Q452D, Y472S and K473S (already in the entry); also called recombinant human SRCR MARCO hVar3 protein
Put plainly: ELISA on recombinant hVar3 protein, A450. For orientation: In an ELISA, binding on a coated surface is turned into a signal by an enzyme label.

In assay [3] the target is T1, N-terminal his-tagged mouse MARCO …. Nature of the assay: ELISA on mMARCO ECD with 2 mM Ca2+, A450-A620.
The target of assay [4] is T2, Mouse MARCO, full length, on cells. Put plainly: competition with AF488 E. coli binding to muMARCO 293T cells, flow cytometry. In general terms: Flow cytometry measures light scatter and fluorescence of single cells or particles in a stream.
Assay [5] concerns the target T4, hMARCO(His-CLD-SRCR) (RG3033) (human, UniProt Q9UEW3 147-520).
T4 construct: also called wild type hMARCO
T4 sequence: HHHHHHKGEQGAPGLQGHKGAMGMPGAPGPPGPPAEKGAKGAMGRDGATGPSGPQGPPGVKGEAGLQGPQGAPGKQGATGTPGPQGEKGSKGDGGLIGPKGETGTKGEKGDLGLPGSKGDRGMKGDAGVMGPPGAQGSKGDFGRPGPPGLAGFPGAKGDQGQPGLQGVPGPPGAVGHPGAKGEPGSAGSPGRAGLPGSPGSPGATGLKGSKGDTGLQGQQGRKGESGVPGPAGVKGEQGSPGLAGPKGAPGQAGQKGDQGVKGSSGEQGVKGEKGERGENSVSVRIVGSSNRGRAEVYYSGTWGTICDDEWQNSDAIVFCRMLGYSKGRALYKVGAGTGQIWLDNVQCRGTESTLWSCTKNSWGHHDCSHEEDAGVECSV
Nature of the assay: ProbeLife Gator study, statement on the loaded antibodies. Summed up: (§1)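 Antibody pairing on MARCO was assessed by biolayer interferometry on ProbeLife probes. In tandem format, 200 nM His-tagged MARCO was loaded on anti-His probes for 120 s, then a 60 s baseline, a first antibody at 200 nM, then a second antibody at 100-200 nM. In sandwich format, the first antibody (200 nM) was captured on anti-Fc probes for 120 s, followed by 200 nM MARCO and then the second antibody (200 nM), each for 120 s.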

The target in assay [6] is T1, N-terminal his-tagged mouse MARCO …. The description is as above. Summed up: as §1

B1: PI-3008-AB (antibody, mouse IgG2a, kappa, V domains shown)
VH: EVQLVESGGGLVKPGASLKLSCVASGFTFSDDWMNWVRQTPGKAMEWIGDIKYDGSYTNYVPSLKNRLTISRDNAKNTLYLQMTNVRSEDTATYYCTSGGVFDYWGQGVMVTVSS
VL: EIVLSQSPTTMAASPGEKVTITCRASSSVSYMHWFQQKSGTSPKPWIYDTSKLASGVPDRFSGSGSGTSYSLTISSMEAEDAATYYCLQRSGYPPTFGAGTKLEVKR
notes: Recombinant anti-mouse MARCO antibody with mouse IgG2a Fc, from PI-HX-3016
B1: the dissociation constant (Kd) in assay [1] was below 0.02 nM. For the same molecule, the concentration giving a half-maximal response (EC50) amounted to 1.1 nM in assay [2] and 1.81 nM in assay [4]. Also, the binding result with hVar3 (RG3036) is given as “no binding (tested: 20 nM)”. In addition, the “EC50 (read off the curve)” value in assay [3] was around 0.07 nM.

B2: PI-3035-AB (antibody, mouse IgG2a, kappa, V domains shown)
VH: QVQLKESGPGLVQPSQTLSLTCTVSGFSLTSYTLSWVRQPPGKGLEWIGAIWGGDNTDYNSALKSRLSISRDTSKSQVLLKMNSLQTEDTAIYFCTRELGGSFDYWGQGVMVTVSS
VL: DIQMTQSPPVLSASVGDRVTLSCKTSQNINKKLDWYQQKHGEAPKLLIYYTNNLQTGIPSRFSGSGSGTDFTLTISTLQPEDVATYYCYQYDSGFTFGAGTKLELKR
notes: Mouse IgG2a chimera derived from PI-HX-3092; also called HX3092 (A mutation) - mIgG2a
As for B2, the binding result (with hVar3 (RG3036); in assay [5]; in assay [6]) was “binds” in each case.

The values above are taken from US20220153832A1 (PIONYR IMMUNOTHERAPEUTICS, published 2022).
